Read-outs that look alike come from different tables or passages of the source.

The target in assay [1] is T1, EDIII-DV4 (E protein domain III of dengue virus serotype DV-4) (dengue virus serotype DV-4, UniProt P09866 572-679).
T1 construct: also called DENV-4
As to the kind of experiment: competition ELISA; column 'EDIII-DV4'.

Assay [2] addresses T2, Peru/1995 (serotype II EDIII).
T2 construct: also called ED3-DV2/Peru95; DENV-2 Peru
As to the kind of experiment: Kd table, method not stated; Ag DENV-2 Peru.

In assay [3] the target is T3, Brazil/2011 (serotype IV EDIII).
T3 E protein domain III (EDIII): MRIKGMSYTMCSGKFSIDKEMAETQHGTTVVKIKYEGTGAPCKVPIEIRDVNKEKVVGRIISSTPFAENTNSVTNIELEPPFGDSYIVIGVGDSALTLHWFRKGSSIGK
As to the kind of experiment: ELISA; row Brazil/2011, serotype IV, genotype I.

The target in assay [4] is T4, Nicaragua/2010 (serotype III EDIII).
T4 construct: also called ED3-DV3/Nicaragua10; DENV-3 Nic
T4 E protein domain III (EDIII): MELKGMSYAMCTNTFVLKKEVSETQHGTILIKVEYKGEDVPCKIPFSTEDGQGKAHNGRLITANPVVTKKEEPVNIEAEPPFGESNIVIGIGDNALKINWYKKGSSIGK

Assay [5] deals with T5, New Caledonia/2009 (serotype IV EDIII).
T5 construct: also called ED3-DV4/NewCal09; DENV-4 NC
T5 E protein domain III (EDIII): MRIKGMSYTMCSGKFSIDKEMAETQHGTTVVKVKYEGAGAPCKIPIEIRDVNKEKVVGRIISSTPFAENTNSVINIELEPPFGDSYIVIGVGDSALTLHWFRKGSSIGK
As to the kind of experiment: SPR; row New Caledonia/2009, serotype IV, genotype IIb.

The target in assay [6] is ED3-DV4/H241/Phil56 (EDIII of DENV-4 strain H241) (dengue virus serotype DENV-4, strain …, UniProt Q58HT7 572-679). In words: ELISA; row Philippines/1956 (H241)*, serotype IV, genotype I.
The target in assay [7] is T6, Philippines/1956 (H87)* (serotype III EDIII) (Dengue virus 3).
T6 construct: isolated EDIII protein
T6 sequence (P27915 576-671): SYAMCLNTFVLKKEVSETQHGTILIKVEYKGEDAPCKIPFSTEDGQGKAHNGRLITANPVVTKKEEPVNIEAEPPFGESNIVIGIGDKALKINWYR
As to the kind of experiment: ELISA; row Philippines/1956 (H87)*, serotype III, genotype I.

For assay [8], the target named is T7, EDIII-DV3 (E protein domain III of dengue virus serotype DV-3) (dengue virus serotype DV-3, UniProt P27915 571-678).
T7 construct: also called DENV-3; EDIII of DV-3
T7 sequence (P27915 571-678, tags left off): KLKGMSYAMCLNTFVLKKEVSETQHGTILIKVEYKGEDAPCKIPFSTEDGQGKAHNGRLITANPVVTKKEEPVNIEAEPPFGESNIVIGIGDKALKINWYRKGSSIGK

In assay [9] the target is T1, EDIII-DV4 (E protein domain III of …).
For assay [10], the target named is T8, Venezuela/2007 (serotype II EDIII).
T8 construct: also called ED3-DV2/Venezuela07
T8 E protein domain III (EDIII): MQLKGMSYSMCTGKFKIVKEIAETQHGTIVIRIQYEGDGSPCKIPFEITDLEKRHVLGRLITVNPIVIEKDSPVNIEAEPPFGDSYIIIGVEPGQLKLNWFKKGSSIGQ
In words: SPR; row Venezuela/2007, serotype II, genotype SE-Asian/American.

Assay [11] shares this target. As to the kind of experiment: ELISA; row Venezuela/2007, serotype II, genotype SE-Asian/American.

B1: antibody D88 (antibody, V domains shown)
VH: QVQLVQSGAEVKKPGASVKVSCKAGFNIKDVYMSWVRQAPEQGLEWMGRIDPENGDTKYDPKLQGRVTMTADTSTNTAYMELRSLRSDDTAVYYCARGWEGFAYWGQGTLVTVSS
VL: DIVMTQSPASLAVSLGERATISCRASENVDKYGNSFMHWYQQKPGQPPKLLIYRASELQWGVPDRFSGSGSGTDFTLTISSLQAEDVAVYYCQRSNEVPWTFGQGTKLEIK
notes: also called mAb D88
With B1, the Kd was 6.12 nM in assay [1]; below 0.1 nM in assay [2]; 14.7 nM in [3]; 4.91 nM in [4]; 8.9 nM in [5]; 113 nM in assay [6]. The Kd in assay [7] is 1.24 nM; in assay [8], 1 nM; in assay [9], 3.8 nM; in assay [10], 0.029 nM; in assay [11] it was below 0.1 nM.

The record behind these values is patent US20240425569A1 (VISTERRA, published 2024).
